The target of this experiment is Influenza B hemagglutinin (HA) from B/Florida/4/2006 (Influenza B virus, strain …, UniProt P03463 16-583).

B1: mAb35490 (antibody, human IgG1, kappa, V domains shown)
VH: EVQLVESGGDLVQPGGSLRLSCAASGFTVSSNYMSWVRQVPGKGLDWVSVTYSGGNTYYADSVKGRFTISRHNSKNTLYLQMNSLRIEDTAVYYCATVPSFHGMDVWGQGTTVTVSS
VL: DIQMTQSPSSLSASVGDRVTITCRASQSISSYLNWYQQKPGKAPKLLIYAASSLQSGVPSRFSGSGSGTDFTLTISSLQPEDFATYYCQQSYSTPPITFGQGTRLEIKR
B1 registered an EC50 of 0.761 nM.

As usually defined, the EC50 is the midpoint of the concentration-response curve.
